Reference: patent publication US20160130336A1

Biological target: mVEGF (mouse (from the prefix m only; not spelled out in the filing)) (UniProt Q00731)
Test: BIAcore (SPR), column mVEGF

Sequence of mVEGF (mouse (from the prefix m only; not spelled out in the filing)) (Q00731 other isoform, or with tags, fused parts or gaps limits assumed): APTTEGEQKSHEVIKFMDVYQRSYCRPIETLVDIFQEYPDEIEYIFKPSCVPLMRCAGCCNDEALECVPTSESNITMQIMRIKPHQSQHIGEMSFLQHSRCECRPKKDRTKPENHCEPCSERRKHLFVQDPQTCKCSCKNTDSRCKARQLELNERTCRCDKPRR

Kd: 6.88 nM
Substance: Avastin® (bevacizumab) (antibody)
